Values of other authors, collected in PMC4737190.
Where “and” joins values, the source holds several entries; their conditions need not be identical. Equal values may be shown once.

Molecular target: linear (Met1-linked) di-ubiquitin (Homo sapiens) (UniProt P0CG47)

Sequence of NEMO UBAN (Q9Y6K9 242-350): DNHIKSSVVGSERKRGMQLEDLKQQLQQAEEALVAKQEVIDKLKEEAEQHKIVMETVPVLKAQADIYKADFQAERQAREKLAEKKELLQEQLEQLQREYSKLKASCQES

Kd: 1.6 µM and 3.7 µM
Substance: NEMO UBAN (from UniProt Q9Y6K9)
